Results from patent publication US20110311550A1 (Scripps Research, published 2011).

B1: MAb AR1A (antibody, V domains shown)
VH: LEQSGAEVKKPGSSVKVSCRASGSPYSSYTITWVRQAPGQGLEWMGGIILMTGKANYAQKFQGRVTITADRATATAYMEMSSLTSDDTAIYYCARDPYVYAGDDVRSLSRWGQGTPVIVSS
VL: not shown
notes: also called IgG1 of Fab B2
B2: MAb AR1B (antibody, V domains shown)
VH: LESGGGLVQPGGSLRLSCEASGYYFSSFAMSWVRQTPGKGLEWVSSIAGGTLGRTSYRDSVKGRFTISRDNSKNTVFLHMNNLRPEDTAVYYCAKDPLLFAGGPNWFDHWGQGTLVTVSS
VL: not shown
notes: also called IgG1 of Fab D1
B3: MAb AR2A (antibody, V domains shown)
VH: LEQSGAEMKKPGASLKVSCKTSGYTFDDYGVTWVRQAPGQGLEWMGWISAYSGNTFYARKFQGRVTMTTDPSTRTAYMELRSLRSDDTAVYFCARDRGLAINGVVFPYFGLDVWGQGTTVTVSS
VL: ELTQSPVSLPVTPGEPASISCRSSQSLLHSNGNHYLDWYLQKPGQSPQLLMYLGSNRASGVPDRFSGSGSGTDFTLKISRVEAEDVGVYYCMQGLQTPWTFGQGTKVEIKR
notes: also called IgG1 of Fab G
B4: MAb AR3D (antibody, V domains shown)
VH: LEQSGAEVKKPGSSVKVSCKASGDTFRSYVITWARQAPGQGLEWMGAIIPFFGTTNLAQKFQGRVTITADESTKTVYMDLSSLRSDDTAVYYCAKAGDLSVGGVLAGGVPHLRHFDPWGQGTLVTVSS
VL: ELTQSPGTLSLSPGERATLSCRAGQTVASNSLAWYQHKPGQAPRLLIYGASIRASGIPDRFSGSGSGTDFTLTISRLEPEDFAVYYCQQYGLSSTFGQGTRLEIKR
notes: also called IgG1 of Fab L4
B5: MAb AR3C (antibody, V domains shown)
VH: LEQSGAEVKKPGSSVKVSCETSGGTLDNYALNWVRQAPGQGLEWIGGVVPLFGTTRNAQKFQGRVTISDDKSTGTGHMELRSLRSEDTAVYYCVRSVTPRYCGGGFCYGEFDYWGQGTLVTVSS
VL: ELTQSPATLSVSPGERATLSCRASQSVSSNLAWYQQKPGQAPRLLIYGASTRATGIPARFSGSGSGTEFTLTVSRLEPEDSAVYFCQQYYRSPLTFGGGTKVEIKR
notes: also called IgG1 of Fab H3

Columns and labels:
[1] = target: T1, vaccinia-expressed E1E2 complex, isolate HCV-1 (genotype 1a) (hepatitis C virus, isolate HCV-1, UniProt P26664 192-383; P26664 384-746); assay: competition ELISA on HCV-1 E1E2; competitor m34 (6/53)
[2] = target: T2, E1E2 complex of HCV isolate H77 (genotype 1a), wild type (HCV isolate H77, UniProt P27958 192-383; P27958 384-746); assay: competition ELISA on H77 E1E2; competitor m42 (Fab P1)
[3] = target: T1, vaccinia-expressed E1E2 complex, …; assay: competition ELISA on HCV-1 E1E2; competitor m26 (AP33)
[4] = target: T1, vaccinia-expressed E1E2 complex, …; assay: competition ELISA on HCV-1 E1E2; competitor m35 (ALP98)
[5] = target: T1, vaccinia-expressed E1E2 complex, …; assay: competition ELISA on HCV-1 E1E2; competitor m25 (9/27)
[6] = target: T1, vaccinia-expressed E1E2 complex, …; assay: competition ELISA on HCV-1 E1E2; competitor m33 (9/75)
[7] = target: T2, E1E2 complex of HCV isolate H77 …; assay: competition ELISA on H77 E1E2; competitor m38 (Fab N2)
[8] = target: T2, E1E2 complex of HCV isolate H77 …; assay: competition ELISA on H77 E1E2; competitor m45 (Fab P3)
[9] = target: T1, vaccinia-expressed E1E2 complex, …; assay: competition ELISA on HCV-1 E1E2; competitor m32 (AP320)
[10] = target: T1, vaccinia-expressed E1E2 complex, …; assay: competition ELISA on HCV-1 E1E2; competitor m6 (AR3C)
[11] = target: T2, E1E2 complex of HCV isolate H77 …; assay: competition ELISA on H77 E1E2; competitor m39 (Fab N3)
[12] = target: T1, vaccinia-expressed E1E2 complex, …; assay: competition ELISA on HCV-1 E1E2; competitor m19 (CBH-4B)
[13] = target: T1, vaccinia-expressed E1E2 complex, …; assay: competition ELISA on HCV-1 E1E2; competitor m23 (H53)
[14] = target: T1, vaccinia-expressed E1E2 complex, …; assay: competition ELISA on HCV-1 E1E2; competitor m7 (AR3D)
[15] = target: E1E2 (Env) of HCV isolate UKN2A1.2 (genotype 2a) on HCVpp (hepatitis C virus, isolate UKN2A1.2); assay: cell-based or functional assay
[16] = target: E1E2 (Env) of HCV isolate UKN2B1.1 (genotype 2b) on HCVpp (hepatitis C virus, isolate UKN2B1.1); assay: cell-based or functional assay
[17] = target: VSV (control pseudotype virus envelope); assay: cell-based or functional assay
[18] = target: T1, vaccinia-expressed E1E2 complex, …; assay: competition ELISA on HCV-1 E1E2; competitor m4 (AR3A)
[19] = target: T1, vaccinia-expressed E1E2 complex, …; assay: competition ELISA on HCV-1 E1E2; competitor m36 (A4)
[20] = target: T2, E1E2 complex of HCV isolate H77 …; assay: competition ELISA on H77 E1E2; competitor m46 (Fab P4)
[21] = target: T1, vaccinia-expressed E1E2 complex, …; assay: competition ELISA on HCV-1 E1E2; competitor m30 (7/16B)
[22] = target: T1, vaccinia-expressed E1E2 complex, …; assay: competition ELISA on HCV-1 E1E2; competitor m27 (3/11)
[23] = target: E1E2 (Env) of HCV isolate H (genotype 1a) on HCVpp (hepatitis C virus, isolate H); assay: cell-based or functional assay

Row | Binder | % residual binding [1] [%] | % residual binding [2] [%] | % residual binding [3] [%] | % residual binding [4] [%] | % residual binding [5] [%] | % residual binding [6] [%] | % residual binding [7] [%] | % residual binding [8] [%] | % residual binding [9] [%] | % residual binding [10] [%] | % residual binding [12] [%] | % residual binding [13] [%] | % residual binding [14] [%] | Neutralizing activity (IC50) on HCVpp [15] [mg/L] | Neutralizing activity (IC50) on HCVpp [16] [mg/L] | Neutralizing activity (IC50) on control pseudotype virus [17] [mg/L] | % residual binding [18] [%] | % residual binding [19] [%] | % residual binding [20] [%] | % residual binding [21] [%] | further results
1 | B1 | 89 | 86 | 102 | 92 | 74 | 24 | 82 | 85 | 84 | 37 | 102 | 20 | 54 | > 50 | > 50 | > 50 | 44 | 97 | 85 | 86 | % residual binding [11]: 71%; % residual binding [22]: 66%
2 | B2 | 92 | 97 | 69 | 92 | 70 | 38 | 100 | 93 | 83 | 66 | 106 | 12 | 84 | > 50 | > 50 | > 50 | 76 | 103 | 95 | 91 | % residual binding [11]: 92%; % residual binding [22]: 61%
3 | B3 | 92 | 82 | 63 | 94 | 67 | 82 | 86 | 72 | 70 | 86 | 87 | 107 | 75 | 5 | 10 | > 50 | 76 | 92 | 79 | 95 | % residual binding [11]: 69%; Neutralizing activity (IC50) on HCVpp [23]: 5 mg/L; % residual binding [22]: 94%
4 | B4 | 103 | 145 | 27 | 97 | 49 | 53 | 98 | 118 | 77 | 13 | 97 | 74 | 14 | 25 | 25 | > 50 | 13 | 90 | 145 | 94 | Neutralizing activity (IC50) on HCVpp [23]: 1 mg/L; % residual binding [22]: 37%
5 | B5 | 105 | 131 | 33 | 99 | 62 | 51 | 116 | 124 | 81 | 8 | 99 | 77 | 12 | 10 | 10 | > 50 | 9 | 93 | 155 | 99 | % residual binding [11]: 92%; Neutralizing activity (IC50) on HCVpp [23]: 1 mg/L; % residual binding [22]: 44%
